One test deals with T1, human TGF-β1 (human, UniProt P01137 279-390, biotinylated in the FIG. 8C ELISA; unlabelled rhTGF-β1 in FIG. 9B/9C).
T1 construct: also called biotinylated huTGFb1; rhTGF-β1
Put plainly: ELISA, protein coated, biotinylated huTGFb1 detected by avidin-HRP. (In general: In an ELISA, binding on a coated surface is turned into a signal by an enzyme label.)

Another test has as its target T2, biotinylated huPD-L1 (human, UniProt Q9NZQ7 19-238, limits assumed, biotinylated (site not stated)).
T2 construct: it is treated here as the same reagent; also called biotinylated PD-L1
Put plainly: ELISA, antibody coated, biotinylated huPD-L1 detected by avidin-HRP.

T1 sequence (P01137 279-390 limits assumed): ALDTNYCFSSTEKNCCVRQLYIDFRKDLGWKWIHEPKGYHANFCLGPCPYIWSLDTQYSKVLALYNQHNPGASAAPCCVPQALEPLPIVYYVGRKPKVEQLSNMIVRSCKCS
T2 sequence (Q9NZQ7 19-238 limits assumed): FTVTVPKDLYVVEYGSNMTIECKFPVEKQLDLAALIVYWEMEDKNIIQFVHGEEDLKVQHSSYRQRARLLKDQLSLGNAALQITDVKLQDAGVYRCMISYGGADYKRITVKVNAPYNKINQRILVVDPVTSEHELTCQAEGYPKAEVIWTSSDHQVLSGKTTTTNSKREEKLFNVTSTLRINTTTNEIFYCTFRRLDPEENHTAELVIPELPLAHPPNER

B1: anti-VEGF (bevacizumab) (antibody, human IgG1, kappa, V domains shown)
VH: EVQLVESGGGLVQPGGSLRLSCAASGYTFTNYGMNWVRQAPGKGLEWVGWINTYTGEPTYAADFKRRFTFSLDTSKSTAYLQMNSLRAEDTAVYYCAKYPHYYGSSHWYFDVWGQGTLVTVSS
VL: DIQMTQSPSSLSASVGDRVTITCSASQDISNYLNWYQQKPGKAPKVLIYFTSSLHSGVPSRFSGSGSGTDFTLTISSLQPEDFATYYCQQYSTVPWTFGQGTKVEIKR
As for B1, in the test with human TGF-β1, the binding result is listed as “no binding”.

B2: anti-PD1 (nivolumab) (antibody, human IgG4 S228P, kappa, V domains shown)
VH: QVQLVESGGGVVQPGRSLRLDCKASGITFSNSGMHWVRQAPGKGLEWVAVIWYDGSKRYYADSVKGRFTISRDNSKNTLFLQMNSLRAEDTAVYYCATNDDYWGQGTLVTVSS
VL: EIVLTQSPATLSLSPGERATLSCRASQSVSSYLAWYQQKPGQAPRLLIYDASNRATGIPARFSGSGSGTDFTLTISSLEPEDFAVYYCQQSSNWPRTFGQGTKVEIKR
notes: Negative control in the PD-L1 ELISA
On to B2, for which the binding result with biotinylated huPD-L1 is “no binding”.

The values are drawn from patent US20210107969A1 (Johns Hopkins, published 2021).
